Positions count from the first letter of the chain named. Read-outs that look alike come from different tables or passages of the source.
B1: TCE-26 (bispecific antibody)
light: not shown
heavy: EVQLVESGGGLVQPGGSLRLSCAVSGYSITSDYAWNWVRQAPGKGLEWVGYISNSGSTSYNPSLKSRFTISRDTSKNTLYLQMNSLRAEDTAVYYCARERNYDYDDYYYAMDYWGQGTLVTVSSASTKGPSVFPLAPSSKSTSGGTAALGCLVKDYFPEPVTVSWNSGALTSGVHTFPAVLQSSGLYSLSSVVTVPSSSLGTQTYICNVNHKPSNTKVDKKVEPKSC
B2: TCE-87 (bispecific antibody)
light: not shown
heavy: B1 heavy
B3: TCE-82 (bispecific antibody)
light: not shown
heavy: B1 heavy
B4: TCE-80 (bispecific antibody)
light: not shown
heavy: B1 heavy
B5: TCE-55 (bispecific antibody)
light: not shown
heavy: B1 heavy
B6: TCE-86 (bispecific antibody)
light: not shown
heavy: B1 heavy
B7: TCE-81 (bispecific antibody)
light: not shown
heavy: B1 heavy
B8: TCE-83 (bispecific antibody)
light: not shown
heavy: B1 heavy
B9: TCE-85 (bispecific antibody)
light: not shown
heavy: B1 heavy
B10: TCE-88 (bispecific antibody)
light: not shown
heavy: B1 heavy
B11: TCE-84 (bispecific antibody)
light: not shown
heavy: B1 heavy
B12: TCE-89 (bispecific antibody)
light: not shown
heavy: B1 heavy
B13: TCE-58 (bispecific antibody)
light: not shown
heavy: B1 heavy
B14: TCE-4 (bispecific antibody)
light: not shown
heavy: B1 heavy with V24A, Y27F, T58I, T74N
B15: TCE-79 (bispecific antibody)
light: not shown
heavy: B1 heavy
B16: TCE-90 (bispecific antibody)
light: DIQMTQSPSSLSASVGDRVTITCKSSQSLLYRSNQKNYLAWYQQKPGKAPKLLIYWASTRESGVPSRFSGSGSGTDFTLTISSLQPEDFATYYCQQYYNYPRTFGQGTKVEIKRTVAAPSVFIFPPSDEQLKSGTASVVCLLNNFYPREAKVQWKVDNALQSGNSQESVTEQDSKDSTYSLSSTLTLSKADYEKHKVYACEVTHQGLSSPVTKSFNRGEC
heavy 1: EVQLVESGGGLVQPGGSLRLSCAVSGYSITSDYAWNWVRQAPGKGLEWVGYISNSGSTSYNPSLKSRFTISRDTSKNTLYLQMNSLRAEDTAVYYCARERNYDYDDYYYAMDYWGQGTLVTVSSASTKGPSVFPLAPSSKSTSGGTAALGCLVKDYFPEPVTVSWNSGALTSGVHTFPAVLQSSGLYSLSSVVTVPSSSLGTQTYICNVNHKPSNTKVDKKVEPKSCDKTHTCPPCPAPELLGG
chain: not shown
heavy 2: not shown
B17: TCE-93 (bispecific antibody)
light: EIVLTQSPATLSLSPGERATLSCRASSSVSYMHWFQQKPGQAPRLLIYSTSNLASGIPARFSGSGSGTDYTLTISSLEPEDFAVYYCQQRRSFPYTFGQGTKLEIKRTVAAPSVFIFPPSDEQLKSGTASVVCLLNNFYPREAKVQWKVDNALQSGNSQESVTEQDSKDSTYSLSSTLTLSKADYEKHKVYACEVTHQGLSSPVTKSFNRGEC
heavy 1: QVQLVQSGAEVKKPGASVKVSCKASGYTFSTYWIEWVRQAPGQRLEWMGEILPGSGQTDFNEKFQGRVTFTADTSSDTAYMELSSLRSEDTAVYYCTRWGYYGTRGYFNVWGQGTLVTVSSASTKGPSVFPLAPSSKSTSGGTAALGCLVKDYFPEPVTVSWNSGALTSGVHTFPAVLQSSGLYSLSSVVTVPSSSLGTQTYICNVNHKPSDTKVDKKVEPKSCDKTHTCPPCPAPPVAGPSVFLFPPKPKDTLMISRTPEVTCVVVDVKHEDPEVKFNWYVDGVEVHNAKTKPCEEEYGSTYRCVSVLTVLHQDWLNGKEYKCKVSNKALPAPIEKTISKAKGQPREPQVYTLPPSREEMTKNQVSLTCDVSGFYPSDIAVEWESDGQPENNYKTTPPVLDSDGSFFLYSKLTVDKSRWEQGDVFSCSVMHEALHNHYTQKSLSLSPGK
heavy 2: QVQLVQSGAEVKKPGASVKVSCKASGYTFSTYWIEWVRQAPGQRLEWMGEILPGSGQTDFNEKFQGRVTFTADTSSDTAYMELSSLRSEDTAVYYCTRWGYYGTRGYFNVWGQGTLVTVSSASTKGPSVFPLAPSSKSTSGGTAALGCLVKDYFPEPVTVSWNSGALTSGVHTFPAVLQSSGLYSLSSVVTVPSSSLGTQTYICNVNHKPSNTKVDKKVEPKSCGGGGSGGGGSEVQLVESGGGLVQPGGSLRLSCAASGFTFSTYAMNWVRQAPGKGLEWVGRIRSKYNNYATYYADSVKGRFTISRDDSKNTLYLQMNSLRAEDTAVYYCVRHGNFGDSYVSWFAYWGQGTLVTVSSGKPGSGKPGSGKPGSGKPGSQAVVTQEPSLTVSPGGTVTLTCGSSTGAVTTSNYANWVQQKPGKSPRGLIGGTNKRAPGVPARFSGSLLGGKAALTISGAQPEDEADYYCALWYSNHWVFGGGTKLTVLGGGGSGGGGSKTHTCPPCPAPPVAGPSVFLFPPKPKDTLMISRTPEVTCVVVDVKHEDPEVKFNWYVDGVEVHNAKTKPCEEQYGSTYRCVSVLTVLHQDWLNGKEYKCKVSNKALPAPIEKTISKAKGQPREPQVYTLPPSREQMTKNQVKLTCLVKGFYPSDIAVEWESNGQPENNYKTTPPVLDSDGSFFLYSKLTVDKSRWQQGNVFSCSVMHEALHNHYTQKSLSLSPGK
B18: TCE-75 (bispecific antibody)
light: B17 light
heavy: not shown
B19: TCE-69 (bispecific antibody)
light: DIQMTQSPSSLSASVGDRVTITCKSSQSLLYRSNQKNYLAWYQQKPGKAPKLLIYWASTRESGVPSRFSGSGSGTDFTLTISSLQPEDFATYYCQQYYNYPRTFGQGTKVEIKRTVAAPSVFIFPPSDRKLKSGTASVVCLLNNFYPREAKVQWKVDNALQSGNSQESVTEQDSKDSTYSLSSTLTLSKADYEKHKVYACEVTHQGLSSPVTKSFNRGEC
chain: not shown
heavy: not shown
B20: TCE-76 (bispecific antibody)
light: not shown
heavy: QVQLVQSGAEVKKPGASVKVSCKASGYTFSTYWIEWVRQAPGQRLEWMGEILPGSGQTDFNEKFQGRVTFTADTSSDTAYMELSSLRSEDTAVYYCTRWGYYGTRGYFNVWGQGTLVTVSSASTKGPSVFPLAPSSKSTSGGTAALGCLVKDYFPEPVTVSWNSGALTSGVHTFPAVLQSSGLYSLSSVVTVPSSSLGTQTYICNVNHKPSNTKVDKKVEPKSC

How the values were obtained:
Experiment in all cases: cell-based or functional assay
[1] = molecular target: T1, six-transmembrane epithelial antigen of the prostate-1 (STEAP-1) (UniProt Q9UHE8 1-339, limits assumed)
[2] = molecular target: T1, six-transmembrane epithelial antigen of …; remark: listed apart in the source
[3] = molecular target: T1, six-transmembrane epithelial antigen of …; remark: listed apart in the source
[4] = molecular target: T1, six-transmembrane epithelial antigen of …; remark: listed apart in the source
[5] = molecular target: T1, six-transmembrane epithelial antigen of …; remark: listed apart in the source
[6] = molecular target: T1, six-transmembrane epithelial antigen of …; remark: listed apart in the source

T1 sequence (Q9UHE8 whole entry): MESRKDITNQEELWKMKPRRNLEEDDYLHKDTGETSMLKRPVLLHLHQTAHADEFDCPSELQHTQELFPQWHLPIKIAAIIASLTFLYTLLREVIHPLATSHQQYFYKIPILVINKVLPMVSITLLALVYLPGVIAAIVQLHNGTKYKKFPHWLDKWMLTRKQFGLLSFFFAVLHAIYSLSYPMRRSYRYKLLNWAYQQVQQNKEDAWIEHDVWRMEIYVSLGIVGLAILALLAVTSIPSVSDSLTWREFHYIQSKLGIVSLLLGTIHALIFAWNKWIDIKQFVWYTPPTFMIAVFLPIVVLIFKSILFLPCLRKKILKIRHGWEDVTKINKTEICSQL

| Binder | Cell line cytotoxicity EC50 (pM), LNCaP [1] | EC50/pM, LNCaP tumor cell killing [2] | Cell line cytotoxicity EC50 (pM), LNCaP [3] | other results |
| --- | --- | --- | --- | --- |
| B1 | 585 pM | 585 pM | – | Cell line cytotoxicity EC50 (pM), 22RV1 [1]: 2100 pM; Cell line cytotoxicity EC50 (pM), A673 [1]: 45.8 pM; Cell line cytotoxicity EC50 (pM), C4-2B [1]: 1150 pM; Cell line cytotoxicity EC50 (pM), IM-95 [1]: 147 pM |
| B2 | 235 pM | 235 pM | – | – |
| B3 | 214 pM | 214 pM | – | – |
| B4 | 260 pM | 260 pM | – | – |
| B5 | – | 1310 pM | 1310 pM | – |
| B6 | 232 pM | 233 pM | – | – |
| B7 | 239 pM | 239 pM | – | – |
| B8 | 209 pM | 209 pM | – | – |
| B9 | 360 pM | 361 pM | – | – |
| B10 | 183 pM | 183 pM | – | – |
| B11 | 192 pM | 192 pM | – | – |
| B12 | 123 pM | 123 pM | – | – |
| B13 | – | 45 pM | 44.5 pM | Cell line cytotoxicity EC50 (pM), 22RV1 [3]: 332 pM |
| B14 | – | – | 2220 pM | IC50 (pM), VCaP tumor cell killing in the presence of CD8+ T cells [4]: > 10000 pM; Cell line cytotoxicity EC50 (pM), 22RV1 [3]: > 10000 pM; Cell line cytotoxicity EC50 (pM), IM-95 [3]: 648 pM; Cell line cytotoxicity EC50 (pM), VCaP [3]: > 10000 pM; IC50 (pM), LNCaP tumor cell killing in the presence of CD8+ T cells [5]: 1710 pM; IC50 (pM), 22Rv1 tumor cell killing in the presence of CD8+ T cells [6]: > 10000 pM |
| B15 | 163 pM | 163 pM | – | – |
| B16 | 68.5 pM | – | – | Cell line cytotoxicity EC50 (pM), 22RV1 [1]: 171 pM; Cell line cytotoxicity EC50 (pM), A673 [1]: 17.3 pM; Cell line cytotoxicity EC50 (pM), IM-95 [1]: 11.6 pM |
| B17 | 0.2 pM | – | – | Cell line cytotoxicity EC50 (pM), 22RV1 [1]: 23.2 pM; Cell line cytotoxicity EC50 (pM), A673 [1]: 0.9 pM; Cell line cytotoxicity EC50 (pM), C4-2B [1]: 0.4 pM; Cell line cytotoxicity EC50 (pM), IM-95 [1]: 3.6 pM; Cell line cytotoxicity EC50 (pM), VCaP [1]: 1.2 pM |
| B18 | – | – | 5.2 pM | – |
| B19 | – | – | 89.1 pM | Cell line cytotoxicity EC50 (pM), 22RV1 [3]: 359 pM; Cell line cytotoxicity EC50 (pM), IM-95 [3]: 11.2 pM |
| B20 | – | – | 7.9 pM | – |
